{"source": "patent US11175293", "about": "(UNIVERSITY OF UTAH RESEARCH FOUNDATION, dated 2021)", "binders": {"B1": {"name": "Glycophorin A (GYPA) on the surface of human red blood cells (other)", "chain": "LSTTEVAMHTSTSSSVTKSYISSQTNDTHKRDTYAATPRAHEVSEISVRTVYPPEEETGERVQLAHHFSEPEITLIIFGVMAGVIGTILLISYGIRRLIKKSPSDVKPLPSPDTDVPLSSVEIENPETSDQ", "notes": "whole, on cells; also called GPA; RBC"}}, "target": "T1, NanoSpike", "T1 construct": "also called IH4vs2-Spike", "experiment": "flow cytometry on human whole blood, detected with FITC-conjugated anti-Strep-tag antibodies"}
{"binder": "B1", "values": [{"measurement": "binding result", "result": "binds"}]}
